Measured values as given in publication PMC11001860, “The assembly platform FimD is required to obtain the most stable quaternary structure of type 1 pili” (Nature Communications, 2024).

T1: FimC, periplasmic chaperone of type 1 pili (Escherichia coli, UniProt P31697 37-241)
T1 construct: FimC, periplasmic chaperone of type 1 pili, Escherichia coli; source: E. coli BL21(DE3) with pFimC-cyt, purified (SP-Sepharose, Superdex 75 SEC)
T1 sequence: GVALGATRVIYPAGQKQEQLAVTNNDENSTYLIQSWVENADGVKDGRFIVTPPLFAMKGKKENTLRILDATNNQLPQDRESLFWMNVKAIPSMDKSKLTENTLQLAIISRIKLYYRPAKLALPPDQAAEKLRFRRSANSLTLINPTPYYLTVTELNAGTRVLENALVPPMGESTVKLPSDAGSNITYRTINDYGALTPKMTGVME

T2: FimChis (Escherichia coli, UniProt P31697 37-241)
T2 construct: FimC, periplasmic chaperone of type 1 pili, Escherichia coli; source: E. coli BL21(DE3) with pFimChis-cyt, purified (SP-Sepharose, Superdex 75 SEC)
T2 sequence (looked up): T1 sequence

B1: FimA, main structural subunit of the type 1 pilus rod (recombinant, assembled in vitro) (natural protein)
chain: AATTVNGGTVHFKGEVVNAACAVDAGSVDQTVQLGQVRTASLAQEGATSSAVGFNIQLNDCDTNVASKAAVAFLGTAIDAGHTNVLALQSSAAGSATNVGVQILDRTGAALTLDGATFSSETTLNNGTNTIPFQARYFATGAATPGAANADATFKVQYQ
notes: FimA, main structural subunit of the type 1 pilus rod of Escherichia coli; printed residue numbers run to Q159; The same FimA was used for rods assembled from FimA monomers, from FimA-FimC complexes and with FimD (FimD-cat); also called FimA monomers; self-complemented FimA
B2: PapA, main structural subunit of the P pilus rod (co-expressed with PapDhis) (natural protein)
chain: APTIPQGQGKVTFNGTVVDAPCSISQKSADQSIDFGQLSKSFLEAGGVSKPMDLDIELVNCDITAFKGGNGAKKGTVKLAFTGPIVNGHSDELDTNGGTGTAIVVQGAGKNVVFDGSEGDANTLKDGENVLHYTAVVKKSSAVGAAVTEGAFSAVANFNLTYQ
notes: PapA, main structural subunit of the P pilus rod, Escherichia coli; also called in vitro-assembled P pili; source: E. coli HM125 with PapDA (pTRC99a), periplasmic extract; purified as a complex with PapDhis (HisTrap, Source 30S, SEC)

Experiments:
[1] = biological target: T1, FimC, periplasmic chaperone of type 1 …; assay: SEC; complex formed by rapid dilution of unfolded, disulfide-intact FimA into FimC (15 min, 23 °C), then Sephadex G25, Source 30S cation exchange and Superdex 75 in 20 mM Tris-HCl pH 8.0, 50 mM NaCl; conditions: both partners purified
[2] = biological target: T2, FimChis; assay: as above; conditions: both partners purified
[3] = biological target: the molecule itself; assay: cryo-EM structure; in vitro-assembled type 1 pilus rods, helical reconstruction, 2.69 Å; sample diluted to 100 µM in ddH2O
[4] = biological target: the molecule itself; assay: negative-stain EM; P pilus rods assembled in vitro from 50 µM PapA-PapDhis complex, 20 mM Tris-HCl pH 8.0, 50 mM NaCl, 37 °C, 7 days

| Binder | binding result [1] | binding result [2] | binding result [3] | binding result [4] |
| --- | --- | --- | --- | --- |
| B1 | binds | binds | binds | – |
| B2 | – | – | – | binds |
